According to patent US20160185850A1 (ESBATECH AN ALCON BIOMEDICAL RESEARCH UNIT, published 2016):
Like-named read-outs stand apart in the source and are kept apart here.

Experiments:
recombinant human TNFα [1] = target: T1, recombinant human TNFα (human, UniProt P01375 77-233); experiment: cell-based or functional assay
recombinant human TNFα [2] = target: T1, recombinant human TNFα; experiment: ELISA on recombinant human TNFα
recombinant human TNFα [3] = target: T1, recombinant human TNFα; experiment: cell-based or functional assay; remark: listed apart in the source
recombinant human TNFα [4] = target: T1, recombinant human TNFα; experiment: surface plasmon resonance (BIACore)
recombinant human TNFα [5] = target: T1, recombinant human TNFα; experiment: ELISA dilution series on TNFα after 3 days at 37°C in pig anterior chamber fluid (column 'anterior chamber fluid')
recombinant human TNFα [6] = target: T1, recombinant human TNFα; experiment: cell-based or functional assay; remark: listed apart in the source
recombinant human TNFα [7] = target: T1, recombinant human TNFα; experiment: ELISA dilution series on TNFα after 3 days at 37°C in pig vitreous body fluid (column 'vitreous body fluid')
recombinant human TNFα [8] = target: T1, recombinant human TNFα; experiment: ELISA dilution series on TNFα after 3 days at 37°C in human serum (column 'serum')
recombinant human TNFα [9] = target: T1, recombinant human TNFα; experiment: ELISA dilution series on TNFα after 3 days at 37°C in human urine (column 'urine')
recombinant human TNFα [10] = target: T1, recombinant human TNFα; experiment: ELISA dilution series on TNFα after 3 days at 37°C in assay buffer TBSTM (positive control)
recombinant human TNFα [11] = target: T1, recombinant human TNFα; experiment: ELISA on recombinant human TNFα; remark: listed apart in the source
recombinant human TNFα [12] = target: T1, recombinant human TNFα; experiment: cell-based or functional assay; remark: listed apart in the source

T1 sequence (P01375 77-233 limits assumed): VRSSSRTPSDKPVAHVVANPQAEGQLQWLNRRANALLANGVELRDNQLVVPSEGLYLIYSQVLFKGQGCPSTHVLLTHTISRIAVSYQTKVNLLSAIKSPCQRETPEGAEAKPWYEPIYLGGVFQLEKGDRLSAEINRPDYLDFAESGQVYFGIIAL

B1: TB-wt (scFv)
scFv: DIVMTQTPKFLLVSAGDRVTITCTASQSVSNDVVWYQQKPGQSPKMLMYSAFNRYTGVPDRFTGRGYGTDFTFTISSVQAEDLAVYFCQQDYNSPRTFGGGTKLEIKRGGGGSGGGGSGGGGSGGGGSQIQLVQSGPELKKPGETVKISCKASGYTFTHYGMNWVKQAPGKGLKWMGWINTYTGEPTYADDFKEHFAFSLETSASTVFLQINNLKNEDTATYFCARERGDAMDYWGQGTSVTVSS
IC50, inhibition of human TNFα-induced cytotoxicity in mouse L929 fibroblasts (recombinant human TNFα [1]): 0.161 µg/mL

B2: TB-A (scFv)
scFv: DIVMTQSPSSLSASVGDRVTLTCTASQSVSNDVVWYQQRPGKAPKLLIYSAFNRYTGVPSRFSGRGYGTDFTLTISSLQPEDVAVYYCQQDYNSPRTFGQGTKLEVKRGGGGSGGGGSGGGGSGGGGSQVQLVQSGAEVKKPGASVKVSCTASGYTFTHYGMNWVRQAPGKGLEWMGWINTYTGEPTYADKFKDRFTFSLETSASTVYMELTSLTSDDTAVYYCARERGDAMDYWGQGTLVTVSS
notes: also called TB-A scFv; TB-A scFv antibody
EC50 (read off the curve) (recombinant human TNFα [2]): ~3 nM
IC50, inhibition of human TNFα-induced cytotoxicity in mouse L929 fibroblasts (recombinant human TNFα [3]): 0.0297 µg/mL
Kd (recombinant human TNFα [4]): 0.8 nM
koff (recombinant human TNFα [4]): 0.00044 s⁻¹
kon (recombinant human TNFα [4]): 500000 M⁻¹ s⁻¹
Kd (recombinant human TNFα [5]): 2.97 nM
Relative potency: EC50X/EC50TB-A, KYM-1 cells (recombinant human TNFα [6]): 1 ratio EC50X/EC50TB-A
Relative potency: EC50X/EC50TB-A, L929 cells (recombinant human TNFα [6]): 1 ratio EC50X/EC50TB-A
IC50, inhibition of human TNFα-induced cytotoxicity in mouse L929 fibroblasts (recombinant human TNFα [1]): 0.0144 µg/mL
Kd (recombinant human TNFα [7]): 3.18 nM
Kd (recombinant human TNFα [8]): 3.62 nM
Kd (recombinant human TNFα [9]): 4.14 nM
Kd (recombinant human TNFα [10]): 3.39 nM

B3: TB-AB (scFv)
scFv (VL of TB-A - (GGGGS)4 linker - VH of TB-B): DIVMTQSPSSLSASVGDRVTLTCTASQSVSNDVVWYQQRPGKAPKLLIYSAFNRYTGVPSRFSGRGYGTDFTLTISSLQPEDVAVYYCQQDYNSPRTFGQGTKLEVKRGGGGSGGGGSGGGGSGGGGSQVQLVQSGAEVKKPGASVKVSCTASGYSFTHYGMNWVRQAPGQGLEWMGWINTYTGEPTYADKFKDRVTLTRDTSIGTVYMELTSLTSDDTAVYYCARERGDAMDYWGQGTLVTVSS
notes: Domain-shuffled variant: VL domain of TB-A with VH domain of TB-B
EC50 (read off the curve) (recombinant human TNFα [2]): ~3 nM

B4: TB-BA (scFv)
scFv (VL of TB-B - (GGGGS)4 linker - VH of TB-A): DIVLTQSPSSLSASVGDRVTLTCTASQSVSNDVVWYQQRPGKAPKRLIYSAFNRYTGVPSRFSGSGSGTEFTLTISSLQPEDVAVYYCQQDYNSPRTFGQGTKLEVKRGGGGSGGGGSGGGGSGGGGSQVQLVQSGAEVKKPGASVKVSCTASGYTFTHYGMNWVRQAPGKGLEWMGWINTYTGEPTYADKFKDRFTFSLETSASTVYMELTSLTSDDTAVYYCARERGDAMDYWGQGTLVTVSS
notes: Domain-shuffled variant: VL domain of TB-B with VH domain of TB-A
EC50 (read off the curve) (recombinant human TNFα [2]): ~700 nM

B5: TB-A L_R65S (scFv)
scFv: DIVMTQSPSSLSASVGDRVTLTCTASQSVSNDVVWYQQRPGKAPKLLIYSAFNRYTGVPSRFSGSGYGTDFTLTISSLQPEDVAVYYCQQDYNSPRTFGQGTKLEVKRGGGGSGGGGSGGGGSGGGGSQVQLVQSGAEVKKPGASVKVSCTASGYTFTHYGMNWVRQAPGKGLEWMGWINTYTGEPTYADKFKDRFTFSLETSASTVYMELTSLTSDDTAVYYCARERGDAMDYWGQGTLVTVSS
notes: also called TB-A L65
binding result (recombinant human TNFα [11]): binds

B6: TB-A Fab antibody (Fab, V domains shown)
VH: QVQLVQSGAEVKKPGASVKVSCTASGYTFTHYGMNWVRQAPGKGLEWMGWINTYTGEPTYADKFKDRFTFSLETSASTVYMELTSLTSDDTAVYYCARERGDAMDYWGQGTLVTVSS
VL: DIVMTQSPSSLSASVGDRVTLTCTASQSVSNDVVWYQQRPGKAPKLLIYSAFNRYTGVPSRFSGRGYGTDFTLTISSLQPEDVAVYYCQQDYNSPRTFGQGTKLEVKR
IC50, inhibition of human TNFα-induced cytotoxicity in mouse L929 fibroblasts (recombinant human TNFα [3]): 0.0659 µg/mL
IC50 in the L929 assay, Fab format relative to scFv format of TB-A (recombinant human TNFα [12]): ~2 fold (IC50 Fab / IC50 scFv)
